Results: patent EP2015073A1

Assays:
[1] = biological target: human Bcl10 (hBcl10), endogenous in the cells used (human) (UniProt O95999); experiment: cell-based or functional assay
[2] = biological target: FLAG-tagged, point mutated Bcl10 (R228/G) (human) (UniProt O95999); experiment: cell-based or functional assay

Substance: Malt1 with deletion of the caspase-like domain (Δcasp) or mutation of the active site residues Cys 464 or His 415
- relative NF-κB activity (dual luciferase assay), percent of the maximum level achieved with wt Malt1 [1]: 50 to 65%

Substance: human Malt1 (hMalt1), endogenous in the cells used (from UniProt Q9UDY8 1-824) (enzyme)
- relative NF-κB activity (dual luciferase assay), percent of the maximum levels (wt Bcl10) [2]: 75%
